The results in this text go back to patent US10098938B2, “Peptides and combination of peptides for use in immunotherapy against various cancers” (immatics biotechnologies GmbH, priority 2015, dated 2018).

One test relates to CD8+ T cells. The test is described as follows: In vitro immunogenicity: T-cell priming with aAPCs loaded with peptide/MHC and anti-CD28, pMHC multimer readout. The format is cell-based, human. The note with it: in vitro immunogenicity of HLA class I peptides; pMHC multimer readout after T-cell priming. The text has this:
In order to obtain information regarding the immunogenicity of the TUMAPs of the present invention, the inventors performed investigations using an in vitro T-cell priming assay based on repeated stimulations of CD8+ T cells with artificial antigen presenting cells (aAPCs) loaded with peptide/MHC complexes and anti-CD28 antibody.
In order to perform in vitro stimulations by artificial antigen presenting cells loaded with peptide-MHC complex (pMHC) and anti-CD28 antibody, the inventors first isolated CD8+ T cells from fresh HLA-A*02 leukapheresis products via positive selection using CD8 microbeads (Miltenyi Biotec, Bergisch-Gladbach, Germany) of healthy donors obtained from the University clinics Mannheim, Germany, after informed consent.
PBMCs and isolated CD8+ lymphocytes were incubated in T-cell medium (TCM) until use consisting of RPMI-Glutamax (Invitrogen, Karlsruhe, Germany) supplemented with 10% heat inactivated human AB serum (PAN-Biotech, Aidenbach, Germany), 100 U/ml Penicillin/100 μg/ml Streptomycin (Cambrex, Cologne, Germany), 1 mM sodium pyruvate (CC Pro, Oberdorla, Germany), 20 μg/ml Gentamycin (Cambrex). 2.5 ng/ml IL7 (PromoCell, Heidelberg, Germany) and 10 U/ml IL-2 (Novartis Pharma, Nürnberg, Germany) were also added to the TCM at this step.
Generation of pMHC/anti-CD28 coated beads, T-cell stimulations and readout was performed in a highly defined in vitro system using four different pMHC molecules per stimulation condition and 8 different pMHC molecules per readout condition.
The purified co-stimulatory mouse IgG2a anti human CD28 Ab 9.3 (Jung et al., 1987) was chemically biotinylated using Sulfo-N-hydroxysuccinimidobiotin as recommended by the manufacturer (Perbio, Bonn, Germany). Beads used were 5.6 μm diameter streptavidin coated polystyrene particles (Bangs Laboratories, Illinois, USA).
pMHC used for positive and negative control stimulations were A*0201/MLA-001 (peptide […] (SEQ ID NO. 303) from modified Melan-A/MART-1) and A*0201/DDX5-001 ([…] from DDX5, SEQ ID NO. 304), respectively.
800.000 beads/200 μl were coated in 96-well plates in the presence of 4×12.5 ng different biotin-pMHC, washed and 600 ng biotin anti-CD28 were added subsequently in a volume of 200 μl. Stimulations were initiated in 96-well plates by co-incubating […] CD8+ T cells with 2×10^5 washed coated beads in 200 μl TCM supplemented with 5 ng/ml IL-12 (PromoCell) for 3 days at 37° C. Half of the medium was then exchanged by fresh TCM supplemented with 80 U/ml IL-2 and incubating was continued for 4 days at 37° C. This stimulation cycle was performed for a total of three times. For the pMHC multimer readout using 8 different pMHC molecules per condition, a two-dimensional combinatorial coding approach was used as previously described (Andersen et al., 2012) with minor modifications encompassing coupling to 5 different fluorochromes. Finally, multimeric analyses were performed by staining the cells with Live/dead near IR dye (Invitrogen, Karlsruhe, Germany), CD8-FITC antibody clone SK1 (BD, Heidelberg, Germany) and fluorescent pMHC multimers. For analysis, a BD LSRII SORP cytometer equipped with appropriate lasers and filters was used. Peptide specific cells were calculated as percentage of total CD8+ cells. Evaluation of multimeric analysis was done using the FlowJo software (Tree Star, Oregon, USA). In vitro priming of specific multimer+ CD8+ lymphocytes was detected by comparing to negative control stimulations.

The target in another test is HLA-A*02 (Homo sapiens, UniProt P04439, D140Y/D185E/D98H/E176V/E277Q/G131W/G231S/I119V/I121R/I166T/I218V/L300P/N151K/N90K/P208A/P217A/Q86G/Q94H/R138H/R169H). The test is described as follows: MHC binding assay, UV-ligand exchange with β2m ELISA, HLA-A*02. Particulars: binding to HLA-A*02 ranged by peptide exchange yield. The text has this: Candidate peptides for T cell based therapies according to the present invention were further tested for their MHC binding capacity (affinity). The individual peptide-MHC complexes were produced by UV-ligand exchange, where a UV-sensitive peptide is cleaved upon UV-irradiation, and exchanged with the peptide of interest as analyzed. Only peptide candidates that can effectively bind and stabilize the peptide-receptive MHC molecules prevent dissociation of the MHC complexes. To determine the yield of the exchange reaction, an ELISA was performed based on the detection of the light chain (β2m) of stabilized MHC complexes. The assay was performed as generally described in Rodenko et al. (Rodenko et al., 2006).
96 well MAXISorp plates (NUNC) were coated over night with 2 ug/ml streptavidin in PBS at room temperature, washed 4× and blocked for 1 h at 37° C. in 2% BSA containing blocking buffer. Refolded HLA-A*02:01/MLA-001 monomers served as standards, covering the range of 15-500 ng/ml. Peptide-MHC monomers of the UV-exchange reaction were diluted 100 fold in blocking buffer. Samples were incubated for 1 h at 37° C., washed four times, incubated with 2 ug/ml HRP conjugated anti-β2m for 1 h at 37° C., washed again and detected with TMB solution that is stopped with […]. Absorption was measured at 450 nm. Candidate peptides that show a high exchange yield (preferably higher than 50%, most preferred higher than 75%) are generally preferred for a generation and production of antibodies or fragments thereof, and/or T cell receptors or fragments thereof, as they show sufficient avidity to the MHC molecules and prevent dissociation of the MHC complexes.

Turning to “249 (GLCERLVSL; listed as Homo sapiens) [compound 249]”, the “Wells positive [%]” value with CD8+ T cells is “+ (<20% = +)”. Also, in the test with HLA-A*02, the Peptide exchange entry is on record as “++++ (> = 75% = ++++)”.
“4 (KLMPGTYTL; listed as Homo sapiens) [compound 4]”: the “Wells positive [%]” value in the test with CD8+ T cells was “+ (<20% = +)”. For the same substance, the Peptide exchange result with HLA-A*02 is “++++ (> = 75% = ++++)”.
“1 (LLYPEPWSV; listed as Homo sapiens) [compound 1]”: the Peptide exchange result with HLA-A*02 is recorded as “++++ (> = 75% = ++++)”.
On the same count and under the same terms, the same measure for “3 (KLEENGDLYL; listed as Homo sapiens) [compound 3]”: “++++ (> = 75% = ++++)”; for “129 (RLQDILWFL; listed as Homo sapiens) [compound 129]”: “++++ (> = 75% = ++++)”.
Consider “125 (SLADYEHFV; listed as Homo sapiens) [compound 125]”, for which, in the test with HLA-A*02, the Peptide exchange result is “++++ (> = 75% = ++++)”.
Same read-out and setting: the same measure for “257 (GLYTDPCGV; listed as Homo sapiens) [compound 257]”: “++++ (> = 75% = ++++)”; for “153 (FISERVEVV; listed as Homo sapiens) [compound 153]”: “++++ (> = 75% = ++++)”; for “112 (SLGKFTFDV; listed as Homo sapiens) [compound 112]”: “++++ (> = 75% = ++++)”.
Same read-out and setting: next, “84 (ALCPRIHEV; listed as Homo sapiens) [compound 84]”: “++++ (> = 75% = ++++)”.
Still for that read-out and setting: the same measure for “258 (LLSERFINV; listed as Homo sapiens) [compound 258]”: “++++ (> = 75% = ++++)”; for “92 (GLLFSLRSV; listed as Homo sapiens) [compound 92]”: “++++ (> = 75% = ++++)”.
With “147 (YLMDDTVEI; listed as Homo sapiens) [compound 147]”, in the test with HLA-A*02, the Peptide exchange entry is “++++ (> = 75% = ++++)”.
As for “14 (ILAKDLFEI; listed as Homo sapiens) [compound 14]”, the Peptide exchange entry with HLA-A*02 was “++++ (> = 75% = ++++)”.
Same read-out and setting: the same measure for “95 (GLLGSLFFL; listed as Homo sapiens) [compound 95]”: “++++ (> = 75% = ++++)”; for “133 (ALLPRLHQL; listed as Homo sapiens) [compound 133]”: “++++ (> = 75% = ++++)”.
Consider “51 (LLFSRLCGA; listed as Homo sapiens) [compound 51]”, for which, in the test with HLA-A*02, the Peptide exchange entry is listed as “++++ (> = 75% = ++++)”.
For the substance “248 (YLDRFLAGV; listed as Homo sapiens) [compound 248]”, the Peptide exchange entry with HLA-A*02 was “++++ (> = 75% = ++++)”.
The same measure, in the same setting: the same measure for “245 (SLLDLPLSL; listed as Homo sapiens) [compound 245]”: “++++ (> = 75% = ++++)”.
Regarding “12 (GLLPLLHRA; listed as Homo sapiens) [compound 12]”, the “Wells positive [%]” value in the test on CD8+ T cells is reported as “++++ (> = 70% = ++++)”. The Peptide exchange entry in the test with HLA-A*02 was “++++ (> = 75% = ++++)”.
